From patent US20090117126A1 (UCB, published 2009)

T1: recombinant human IL-17 (human, UniProt Q16552 20-155, limits assumed)
T1 construct: also called hIL-17; IL-17A
T1 sequence (looked up): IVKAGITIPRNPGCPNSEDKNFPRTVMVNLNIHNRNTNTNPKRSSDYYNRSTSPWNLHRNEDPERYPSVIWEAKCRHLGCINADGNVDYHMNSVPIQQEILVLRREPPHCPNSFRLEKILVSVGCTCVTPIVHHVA

B1: CDP435 (PEGylated Fab fragment, gH11gL3 graft, 2 x 20 kDa PEG) (Fab, V domains shown)
VH: EVQLVESGGGVVQPGGSLRLSCAVSGFSLTTYGVHWVRQAPGKGLEWVAVIWSDGYTTYNSALKSRFTISRDNSKNTVYLQMNSLRAEDTAVYYCARNDGDYFYSMDYWGQGTLVTVSS
VL: DVQMTQSPSSLSASVGDRVTITCRSSQSLVHSNGNTYLHWYQQKPGKAPKLLIYKVSNRFSGVPSRFSGSGSGTDFTLTISSLQPEDFATYYCSQSTHVPTFGQGTKVEIKR
modifications: 20 kDa PEG-maleimide on the interchain cysteine of CL (position 214 by Kabat numbering, 218 by sequential numbering); 20 kDa PEG-maleimide on the interchain cysteine of CH1 (cys-233 by Kabat numbering, cys-222 by sequential numbering; C-terminal residue)
notes: no interchain disulphide after PEGylation
B2: antibody Fab fragment of CDP435 (not PEGylated) (Fab, V domains shown)
VH: EVQLVESGGGVVQPGGSLRLSCAVSGFSLTTYGVHWVRQAPGKGLEWVAVIWSDGYTTYNSALKSRFTISRDNSKNTVYLQMNSLRAEDTAVYYCARNDGDYFYSMDYWGQGTLVTVSS
VL: DVQMTQSPSSLSASVGDRVTITCRSSQSLVHSNGNTYLHWYQQKPGKAPKLLIYKVSNRFSGVPSRFSGSGSGTDFTLTISSLQPEDFATYYCSQSTHVPTFGQGTKVEIKR
B3: murine monoclonal antibody IL-17F4.100 (antibody, V domains shown)
VH: QVQLKESGPGLVAPSQSLSITCTVSGFSLTTYGVHWIRQPPGKGLEWLVVIWSDGYTTYNSALKSRLSITKDNSKSQVFLKMNSLQTDDTAMYYCARNDGDYFYSMDYWGQGTSVTVSS
VL: DVVMTQTPLSLPVSLGDQASFSCRSSQSLVHSNGNTYLHWYLQKPGQSPKLLIYKVSNRFSGVPDRFSGSGSGTDFTLKISRVEAEDLGVYFCSQSTHVPTFGGGTKLEIKR

Key:
[1] = molecular target: T1, recombinant human IL-17; assay: BIAcore 3000; mean of the five replicates of Table 1; mean of the replicates of Table 1; CDP435 captured by anti-human IgG F(ab)2, IL-17 in solution
Procedure: The assay format used CDP435 captured by anti-human IgG F(ab)₂ with a titration of recombinant human IL-17 in the solution phase. BIA (Biamolecular Interaction Analysis) was performed using a BIAcore 3000 (BIAcore AB). Affinipure F(ab′)₂ Fragment goat anti-human IgG, F(ab)₂ fragment specific (Jackson ImmunoResearch) was immobilised on a CM5 Sensor Chip via amine coupling chemistry to a capture level of ≈9000 response units (RUs). HBS-EP buffer (10 mM HEPES pH 7.4, 0.15 M NaCl, 3 mM EDTA, 0.005% Surfactant P20, BIAcore AB) was used as the running buffer with a flow rate of 10 μl/min. An injection of CDP435 was made at 10 μl/min in order to obtain around 200 Ru of Fab captured by the immobilised anti-human IgG-F(ab)₂ to the surface. Human IL-17 was titrated over the captured antibody Fab fragment at various concentrations at a flow rate of 30 μl/min. The surface was regenerated by a 2×10 μl injection of 40 mM HCl, followed by a 5 μl injection of 5 mM NaOH at a flow rate of 10 μl/min.
Background subtraction binding curves were analysed using the BIAevaluation software (version 3.2) following standard procedures. Kinetic parameters were determined from the fitting algorithm. The affinity was measured at human IL-17 concentrations at or below 12.5 nM.

[2] = molecular target: T1, recombinant human IL-17; assay: cell-based or functional assay
[3] = molecular target: monkey recombinant IL-17 (monkey); assay: cell-based or functional assay
[4] = molecular target: T1, recombinant human IL-17; assay: cell-based or functional assay; remark: listed apart in the source

Binder	Kd [1] [nM]	IC50, human IL-17 (25 ng/ml) induced IL-6 production from Hela cells [2] [µg/mL]	IC50, monkey IL-17 (25 ng/ml) induced IL-6 production from Hela cells [3] [µg/mL]	IC50 (read off the curve) [4] [µg/mL]
B1	0.224	0.158	0.147	–
B2	–	–	–	~0.2
B3	–	–	–	~0.2
